Substrate in this data set: O=C(O)[C@H]1O[C@@H](Oc2ccc([N+](=O)[O-])cc2)[C@H](O)[C@@H](O)[C@@H]1O
It counts as biochemical. As to conditions: 37.0 °C.

As usually defined, the Km is the substrate concentration at which the rate is half of its maximum. A word on the kcat: it is the number of substrate molecules converted per active site and unit of time at saturation. One may read the kcat/Km as the second-order rate constant that governs catalysis at low substrate concentration.

B1: SaGUS (Streptococcus agalactiae 2603V/R) (protein)
chain: MLYPLLTKTRNTYDLGGIWNFKLGEHNPNELLPSDEVMVIPTSFNDLMVSKEKRDYIGDFWYEKVIEVPKVSEDEEMVLRFGSVTHQAKIYVDGVLVGEHKGGFTPFEVLVPECKYNNEKIKVSICANNVLDYTTLPVGNYSEIIQEDGSIKKKVRENFDFFNYAGVHRPLKLMIRPKNHIFDITITSRLSDDLQSADLHFLVETNQKVDEVRISVFDEDNKLVGETKDSRLFLSDVHLWEVLNAYLYTARVEIFVDNQLQDVYEENFGLREIEVTNGQFLLNRKPIYFKGFGKHEDTFINGRGLNEAANLMDLNLLKDMGANSFRTSHYPYSEEMMRLADRMGVLVIDEVPAVGLFQNFNASLDLSPKDNGTWNLMQTKAAHEQAIQELVKRDKNHPSVVMWVVANEPASHEAGAHDYFEPLVKLYKDLDPQKRPVTLVNILMATPDRDQVMDLVDVVCLNRYYGWYVDHGDLTNAEVGIRKELLEWQDKFPDKPIIITEYGADTLPGLHSTWNIPYTEEFQCDFYEMSHRVFDGIPNLVGEQVWNFADFETNLMILRVQGNHKGLFSRNRQPKQVVKEFKKRWMTIPHYHNKKNSVK
For B1, the Km was 360 ± 30 µM, the kcat worked out at 80 ± 2 s⁻¹ and the kcat/Km was found to be 224000 M⁻¹ s⁻¹.
